The record followed here is patent EP0888374B1.

This test deals with Complement System Protein C1q (UniProt P02745). The experiment in a line: cell-based or functional assay.
UniProt P02745, sequence (P02745 23-245, chain 1 of 3): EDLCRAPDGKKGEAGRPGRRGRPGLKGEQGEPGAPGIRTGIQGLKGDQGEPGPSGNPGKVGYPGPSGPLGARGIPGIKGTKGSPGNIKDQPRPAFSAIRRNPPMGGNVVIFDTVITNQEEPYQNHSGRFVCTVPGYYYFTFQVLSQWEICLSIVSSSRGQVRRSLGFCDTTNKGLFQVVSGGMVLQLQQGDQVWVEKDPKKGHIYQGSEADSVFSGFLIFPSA
UniProt P02745, sequence (P02746 28-253, chain 2 of 3, further chain): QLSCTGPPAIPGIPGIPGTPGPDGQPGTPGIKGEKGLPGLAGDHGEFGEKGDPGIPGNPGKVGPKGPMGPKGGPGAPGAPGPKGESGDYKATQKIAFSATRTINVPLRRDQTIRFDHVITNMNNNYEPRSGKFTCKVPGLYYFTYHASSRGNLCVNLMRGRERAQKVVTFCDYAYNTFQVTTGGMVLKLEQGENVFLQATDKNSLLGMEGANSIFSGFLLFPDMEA
UniProt P02745, sequence (P02747 29-245, chain 3 of 3, further chain): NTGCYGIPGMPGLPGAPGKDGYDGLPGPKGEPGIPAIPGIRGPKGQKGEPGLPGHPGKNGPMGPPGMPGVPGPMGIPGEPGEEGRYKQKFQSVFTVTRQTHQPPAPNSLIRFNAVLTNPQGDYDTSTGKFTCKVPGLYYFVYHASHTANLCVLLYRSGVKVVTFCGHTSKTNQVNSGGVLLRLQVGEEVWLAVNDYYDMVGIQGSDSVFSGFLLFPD

Substance “BSA-anti-BSA Immune Complexes (from UniProt P02769 25-607)” had a [4d] µg (Class.) of 8 µg.
